Assay results taken from publication PMC4860835, “ALG-2 activates the MVB sorting function of ALIX through relieving its intramolecular interaction” (Cell Discovery, 2015).

Target: T1, ALIX (endogenous, HEK293 cells) (human (endogenous in HEK293), UniProt Q8WUM4 1-868)
T1 construct: also called cytosolic ALIX; AIP1
T1 sequence (looked up): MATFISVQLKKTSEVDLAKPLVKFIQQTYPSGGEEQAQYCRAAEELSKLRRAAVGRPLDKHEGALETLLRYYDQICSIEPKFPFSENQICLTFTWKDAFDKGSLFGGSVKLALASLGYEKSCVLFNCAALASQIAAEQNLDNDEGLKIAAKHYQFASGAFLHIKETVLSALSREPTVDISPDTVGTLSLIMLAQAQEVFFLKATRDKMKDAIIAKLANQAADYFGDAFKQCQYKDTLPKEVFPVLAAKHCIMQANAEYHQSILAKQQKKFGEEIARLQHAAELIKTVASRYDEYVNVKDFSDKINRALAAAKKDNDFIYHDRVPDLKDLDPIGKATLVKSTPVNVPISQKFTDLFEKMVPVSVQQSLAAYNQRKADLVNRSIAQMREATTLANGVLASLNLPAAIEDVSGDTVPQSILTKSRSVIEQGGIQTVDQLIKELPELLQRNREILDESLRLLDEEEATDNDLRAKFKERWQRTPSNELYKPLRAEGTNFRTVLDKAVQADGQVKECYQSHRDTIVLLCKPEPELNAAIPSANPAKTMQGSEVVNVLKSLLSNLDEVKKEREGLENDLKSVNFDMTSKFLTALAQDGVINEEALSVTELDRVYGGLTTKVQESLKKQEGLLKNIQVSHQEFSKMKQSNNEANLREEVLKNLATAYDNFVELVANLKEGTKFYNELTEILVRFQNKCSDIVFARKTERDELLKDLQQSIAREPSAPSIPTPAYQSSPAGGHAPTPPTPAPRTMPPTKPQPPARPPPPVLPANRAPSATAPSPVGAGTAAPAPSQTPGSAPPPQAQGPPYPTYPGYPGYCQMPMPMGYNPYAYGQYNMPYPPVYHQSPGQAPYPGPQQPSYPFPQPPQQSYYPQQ
Assay: co-IP; 0.1% Triton X-100-solubilized HEK293 cell lysates, 10 μM CaCl2 added; control and EGF-stimulated cells (Supplementary Figure S3A)
Conditions: partners not purified

fold more ALG-2 interacting with ALIX in EGF-stimulated cells than in control cells: 3.5 fold
B1: ALG-2 (endogenous, HEK293 cells) (natural protein, human (endogenous in HEK293), UniProt O75340 1-191, looked up)
chain: MAAYSYRPGPGAGPGPAAGAALPDQSFLWNVFQRVDKDRSGVISDTELQQALSNGTWTPFNPVTVRSIISMFDRENKAGVNFSEFTGVWKYITDWQNVFRTYDRDNSGMIDKNELKQALSGFGYRLSDQFHDILIRKFDRQGRGQIAFDDFIQGCIVLQRLTDIFRRYDTDQDGWIQVSYEQYLSMVFSIV
notes: also called endogenous ALG-2; apoptosis-linked gene-2 product; source: endogenous, HEK293 membrane and soluble fractions and 0.1% Triton X-100 lysate
